Source: patent publication US20190075806A1, “PROTEINASE B AND LACTASE SOLUTION USING ITS PROPERTIES AND METHOD FOR PRODUCING THE SAME” (GODO SHUSEI CO., LTD., priority 2016, published 2019)
“Also recorded” adds a separate entry of the source. Where two headings read alike, the source gives them in different places.

Legend:
Azocoll = assay: Azocoll-decomposing activity; assay type: biochemical; conditions: for SUBSTRATE SPECIFICITY: substrate Azocoll
Azocasein = assay: Substrate specificity, Azocasein; assay type: biochemical
Source text: As a method for evaluating an influence on the fragmentation activity of PrB, the “lactase-fragmenting activity” can be also used as its index. This “lactase-fragmenting activity” indicates the enzyme activity of fragmenting the lactase protein, and an actual index can be defined as follows. When the band strength around 120 kDa of a sample to which PrB is not added is regarded as 100%, the band area relative value around 120 kDa of samples obtained by adding 1 to 4 mACU of PrB is found as a relative value (1 ACU means the amount of enzyme which raises the absorbance at 428 nm by 1 at 30° C. for an hour using azocasein as a substrate). Next, the amount of enzyme added when the lactase band after reaction at 30° C. for an hour decreases by 20% compared to when PrB is not added is regarded as 1 LDU (Lactase Degradation Unit) of lactase-fragmenting activity.

[1] = Substrate specificity, Bz-Tyr-pNa; assay type: biochemical
[2] = pH 7.0, cited from earlier work
FITC-casein = assay: FITC-casein-decomposing activity; assay type: biochemical; conditions: for SUBSTRATE SPECIFICITY: substrate FITC-casein
lactase [3] = assay: Lactase-fragmenting activity (LDU); assay type: biochemical, Kluyveromyces; conditions: for SUBSTRATE SPECIFICITY: substrate Lactase
Source text: In addition, the “lactase-fragmenting action” in the claims and description can be an action by which the neutral lactase around 120 kDa in SDS-PAGE is fragmented, and preferably the fragments of the fragmented lactase show the neutral lactase activity. As a method for evaluating an influence on the fragmentation activity of PrB, the “lactase-fragmenting activity” can be also used as its index. This “lactase-fragmenting activity” indicates the enzyme activity of fragmenting the lactase protein, and an actual index can be defined as follows. When the band strength around 120 kDa of a sample to which PrB is not added is regarded as 100%, the band area relative value around 120 kDa of samples obtained by adding 1 to 4 mACU of PrB is found as a relative value (1 ACU means the amount of enzyme which raises the absorbance at 428 nm by 1 at 30° C. for an hour using azocasein as a substrate). Next, the amount of enzyme added when the lactase band after reaction at 30° C. for an hour decreases by 20% compared to when PrB is not added is regarded as 1 LDU (Lactase Degradation Unit) of lactase-fragmenting activity.

[4] = Substrate specificity, Bz-Arg-pNa; assay type: biochemical
[5] = Substrate specificity, Ac-Phe-pNa; assay type: biochemical
BSA = assay: Substrate specificity, BSA; assay type: biochemical
Casein = assay: Substrate specificity, Casein; assay type: biochemical
lactase [6] = assay: Fragmentation of lactase confirmed by SDS-PAGE; assay type: biochemical, Kluyveromyces
Protocol: First, the state of fragmentation of lactase in a lactase solution can be confirmed by SDS-PAGE using 10% polyacrylamide gel. For example, a lactase solution is diluted with purified water as needed, and mixed with Sample Buffer for SDS-PAGE at 1:1, and electrophoresis samples are prepared by heat treatment at 100° C. for 3 minutes. Next, the standard and electrophoresis samples are applied to 10% acrylamide gel, and subjected to electrophoresis. The molecular weight of lactase can be also roughly estimated by comparison with the standard. As the standard, CLEARLY Stained Protein Ladder (Takara #3454A) and the like are used. The gel after electrophoresis is subjected to protein staining using a CBB staining solution (BIO-RAD #161-0786).
The gel after staining was scanned as a grayscale image with a scanner GT-X820 manufactured by Seiko Epson Corporation. Furthermore, the concentration of each band (protein amount) can be also measured by Image J software (NIH, Bethesda, Md.). […]
As prior consideration, the following test was carried out about a relationship between the fragmentation and heat stability of lactase. […] As the conditions of the heat stability test, using an enzyme solution (lactase solution) diluted to 0.25 NLU/g, the activity after treatment at 50° C. for 10 minutes was calculated as the remaining activity (%) to that of an untreated sample. […]

[7] = FITC-casein-decomposing activity
[8] = FITC-casein-decomposing activity, listed as K. lactis

B1: S. cerevisiae: PrB derived from S. cerevisiae, comparison enzyme (protein, UniProt P09232 281-574, looked up)
Cerevisin: EFDTQNSAPWGLARISHRERLNLGSFNKYLYDDDAGRGVTSYVIDTGVNINHKDFEKRAIWGKTIPLNDEDLDGNGHGTHCAGTIASKHYGVAKNANVVAVKVLRSNGSGTMSDVVKGVEYAAKAHQKEAQEKKKGFKGSTANMSLGGGKSPALDLAVNAAVEVGIHFAVAAGNENQDACNTSPASADKAITVGASTLSDDRAYFSNWGKCVDVFAPGLNILSTYIGSDDATATLSGTSMASPHVAGLLTYFLSLQPGSDSEFFELGQDSLTPQQLKKKLIHYSTKDILFDIPE
Azocoll; Azocoll-decomposing activity
  HEAT STABILITY: 25 °C
  INHIBITOR: PCMB, PMSF,; also recorded: HgCl2
  OPTIMUM REACTION pH: pH 7.0
Azocoll
  SUBSTRATE SPECIFICITY: 9.1
Azocasein
  SUBSTRATE SPECIFICITY: 1
[1]
  SUBSTRATE SPECIFICITY: 0.2

B2: lactase described in Patent Literature 1: lactase from cultures of a strain of Kluyveromyces lactis (JP 60-18394 B) (protein, UniProt P00723 1-1025, looked up)
Beta-galactosidase: MSCLIPENLRNPKKVHENRLPTRAYYYDQDIFESLNGPWAFALFDAPLDAPDAKNLDWETAKKWSTISVPSHWELQEDWKYGKPIYTNVQYPIPIDIPNPPTVNPTGVYARTFELDSKSIESFEHRLRFEGVDNCYELYVNGQYVGFNKGSRNGAEFDIQKYVSEGENLVVVKVFKWSDSTYIEDQDQWWLSGIYRDVSLLKLPKKAHIEDVRVTTTFVDSQYQDAELSVKVDVQGSSYDHINFTLYEPEDGSKVYDASSLLNEENGNTTFSTKEFISFSTKKNEETAFKINVKAPEHWTAENPTLYKYQLDLIGSDGSVIQSIKHHVGFRQVELKDGNITVNGKDILFRGVNRHDHHPRFGRAVPLDFVVRDLILMKKFNINAVRNSHYPNHPKVYDLFDKLGFWVIDEADLETHGVQEPFNRHTNLEAEYPDTKNKLYDVNAHYLSDNPEYEVAYLDRASQLVLRDVNHPSIIIWSLGNEACYGRNHKAMYKLIKQLDPTRLVHYEGDLNALSADIFSFMYPTFEIMERWRKNHTDENGKFEKPLILCEYGHAMGNGPGSLKEYQELFYKEKFYQGGFIWEWANHGIEFEDVSTADGKLHKAYAYGGDFKEEVHDGVFIMDGLCNSEHNPTPGLVEYKKVIEPVHIKIAHGSVTITNKHDFITTDHLLFIDKDTGKTIDVPSLKPEESVTIPSDTTYVVAVLKDDAGVLKAGHEIAWGQAELPLKVPDFVTETAEKAAKINDGKRYVSVESSGLHFILDKLLGKIESLKVKGKEISSKFEGSSITFWRPPTNNDEPRDFKNWKKYNIDLMKQNIHGVSVEKGSNGSLAVVTVNSRISPVVFYYGFETVQKYTIFANKINLNTSMKLTGEYQPPDFPRVGYEFWLGDSYESFEWLGRGPGESYPDKKESQRFGLYDSKDVEEFVYDYPQENGNHTDTHFLNIKFEGAGKLSIFQKEKPFNFKISDEYGVDEAAHACDVKRYGRHYLRLDHAIHGVGSEACGPAVLDQYRLKAQDFNFEFDLAFE
[2]; 50° C. for 10 minutes
  deactivated: 45%
[2]; 55° C. for 10 minutes
  deactivated: 100%

B3: PrB: proteinase B derived from Kluyveromyces lactis, neutral protease with lactase-fragmenting activity, SEQ ID NO:1 (protein, listed as Kluyveromyces lactis)
chain: SFNTQNSAPWGLARISHREKLNLGSFNKYLYDDDAGKGVTAYVVDTGVNVNHKDFDGRAVWGKTIPKDDPDVDGNGHGTHCAGTIGSVHYGVAKNADIVAVKVLRSNGSGTMSDVVKGVEYVAEAHKKAVEEQKKGFKGSTANMSLGGGKSPALDLAVNAAVKAGVHFAVAAGNENQDACNTSPAAAENAITVGASTLSDERAYFSNWGKCVDIFGPGLNILSTYIGSDTATATLSGTSMATPHVVGLLTYFLSLQPDADSEYFHAAGGITPSQLKKKLIDFSTKNVLSDLPEDTVNY
FITC-casein; [7]
  ACTIVATOR: Ca^2+
  HEAT STABILITY: 40 °C
  INHIBITOR: Cu^2+, Fe^2+
  OPTIMUM REACTION TEMPERATURE: about 40 °C
  OPTIMUM REACTION pH: about 8.0 pH
  pH STABILITY: 5.0 to 8.0 pH
FITC-casein; [8]
  OPTIMUM REACTION TEMPERATURE: 40 °C
  OPTIMUM REACTION pH: pH 8.0
  pH STABILITY: pH 5.0~8.0
FITC-casein
  SUBSTRATE SPECIFICITY: high substrate specificity
FITC-casein; listed as K. lactis
  SUBSTRATE SPECIFICITY: 78
Lactase [3]; lactase-fragmenting activity
  INHIBITOR: AEBSF
  OPTIMUM REACTION TEMPERATURE: 40 °C
  OPTIMUM REACTION pH: pH 7.0
Lactase [3]
  SUBSTRATE SPECIFICITY: high substrate specificity
Lactase [3]; listed as K. lactis
  SUBSTRATE SPECIFICITY: 1159
Azocoll
  SUBSTRATE SPECIFICITY: 1.9
Azocasein
  SUBSTRATE SPECIFICITY: 1
[1]
  SUBSTRATE SPECIFICITY: 0
[4]
  SUBSTRATE SPECIFICITY: 0
[5]
  SUBSTRATE SPECIFICITY: 0
BSA
  SUBSTRATE SPECIFICITY: 0
Casein
  SUBSTRATE SPECIFICITY: 0
Lactase [6]
  state of fragmentation of lactase (SDS-PAGE): fragmentation of lactase proceeded
Lactase [6]; with respect to 1 NLU of lactase activity, added to F-1, 30° C. for 20 hours
  amount of PrB at which fragmentation was not caused: 0.26 ng
